The test has as its target Pr17 (OAD22177.1), secreted protein of Candidatus Thiomargarita nelsonii (Candidatus Thiomargarita nelsonii). Put plainly: non-reducing SDS-PAGE.

For orientation: stoichiometry N means the number of molecules, sites or subunits per partner or assembly. Regarding “Pr17 (OAD22177.1), secreted protein of Candidatus Thiomargarita nelsonii (natural protein)”, the stoichiometry N amounted to 2.

Source of the values: doi:10.1101/2021.03.31.438001.
